# According to paper doi:10.1101/2022.02.05.479199:
# Biological target: RPA-DBD-D-Cy3;Rtt105-Cy5 (C13S) C13S (Saccharomyces cerevisiae;Saccharomyces cerevisiae?) (UniProt P22336+P26754+P26755+P40063)
# Test: FRET titration
# RPA-DBD-D-Cy3;Rtt105-Cy5 (C13S) C13S (Saccharomyces cerevisiae;Saccharomyces cerevisiae?), sequence (P22336 whole entry, chain 1 of 4): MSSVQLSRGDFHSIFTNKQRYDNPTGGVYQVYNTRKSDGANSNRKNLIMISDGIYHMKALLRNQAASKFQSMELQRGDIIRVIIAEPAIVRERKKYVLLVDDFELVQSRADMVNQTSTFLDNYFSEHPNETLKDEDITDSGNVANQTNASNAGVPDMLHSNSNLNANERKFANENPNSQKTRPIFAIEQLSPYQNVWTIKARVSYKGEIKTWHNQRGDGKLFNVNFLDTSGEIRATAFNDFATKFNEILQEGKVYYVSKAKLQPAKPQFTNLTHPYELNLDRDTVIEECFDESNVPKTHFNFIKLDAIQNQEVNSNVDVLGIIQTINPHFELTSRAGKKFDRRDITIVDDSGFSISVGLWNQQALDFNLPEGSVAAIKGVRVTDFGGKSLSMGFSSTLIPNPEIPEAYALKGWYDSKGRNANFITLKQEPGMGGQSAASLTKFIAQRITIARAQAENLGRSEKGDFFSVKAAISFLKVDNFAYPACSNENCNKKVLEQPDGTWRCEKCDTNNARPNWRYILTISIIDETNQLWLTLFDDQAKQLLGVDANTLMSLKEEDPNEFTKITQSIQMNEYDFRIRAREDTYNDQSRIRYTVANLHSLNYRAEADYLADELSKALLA
# RPA-DBD-D-Cy3;Rtt105-Cy5 (C13S) C13S (Saccharomyces cerevisiae;Saccharomyces cerevisiae?), sequence (P26754 whole entry, chain 2 of 4): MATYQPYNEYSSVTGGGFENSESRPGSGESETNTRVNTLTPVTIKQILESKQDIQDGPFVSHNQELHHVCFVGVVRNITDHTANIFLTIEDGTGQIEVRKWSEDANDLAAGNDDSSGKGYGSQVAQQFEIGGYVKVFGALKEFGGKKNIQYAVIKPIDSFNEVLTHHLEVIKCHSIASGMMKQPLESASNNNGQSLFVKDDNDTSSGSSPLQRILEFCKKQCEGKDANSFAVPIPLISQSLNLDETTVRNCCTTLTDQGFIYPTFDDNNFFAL
# RPA-DBD-D-Cy3;Rtt105-Cy5 (C13S) C13S (Saccharomyces cerevisiae;Saccharomyces cerevisiae?), sequence (P26755 whole entry, chain 3 of 4): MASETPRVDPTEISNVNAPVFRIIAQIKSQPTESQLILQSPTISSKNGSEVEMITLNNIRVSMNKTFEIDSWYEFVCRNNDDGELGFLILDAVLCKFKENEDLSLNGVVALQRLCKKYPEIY
# RPA-DBD-D-Cy3;Rtt105-Cy5 (C13S) C13S (Saccharomyces cerevisiae;Saccharomyces cerevisiae?), sequence (P40063 whole entry C13S, chain 4 of 4): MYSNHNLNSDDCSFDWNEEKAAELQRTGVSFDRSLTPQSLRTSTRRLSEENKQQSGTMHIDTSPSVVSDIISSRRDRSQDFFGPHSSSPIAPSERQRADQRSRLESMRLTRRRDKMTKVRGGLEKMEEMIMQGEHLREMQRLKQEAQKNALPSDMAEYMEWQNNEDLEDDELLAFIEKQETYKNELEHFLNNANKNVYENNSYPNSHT
row,Sequence,K half [nM]
1,TTTTTTTTTTTTTTTTTTTTTTTTTTTTTTTTTTT [(dT)35],130
2,TTTTTTTTTTTTTTTTTTTTTTTTTTTTTTTTTTTTTTTTTTTTTTTTTTTTTTTTTTTTTTTTTTTTTT [(dT)70],42.8
